T1: IKKα-T7 (murine, UniProt Q60680 1-745)
T1 construct: also called T7-IKKα; murine IKKα/CHUK
T1 sequence (looked up): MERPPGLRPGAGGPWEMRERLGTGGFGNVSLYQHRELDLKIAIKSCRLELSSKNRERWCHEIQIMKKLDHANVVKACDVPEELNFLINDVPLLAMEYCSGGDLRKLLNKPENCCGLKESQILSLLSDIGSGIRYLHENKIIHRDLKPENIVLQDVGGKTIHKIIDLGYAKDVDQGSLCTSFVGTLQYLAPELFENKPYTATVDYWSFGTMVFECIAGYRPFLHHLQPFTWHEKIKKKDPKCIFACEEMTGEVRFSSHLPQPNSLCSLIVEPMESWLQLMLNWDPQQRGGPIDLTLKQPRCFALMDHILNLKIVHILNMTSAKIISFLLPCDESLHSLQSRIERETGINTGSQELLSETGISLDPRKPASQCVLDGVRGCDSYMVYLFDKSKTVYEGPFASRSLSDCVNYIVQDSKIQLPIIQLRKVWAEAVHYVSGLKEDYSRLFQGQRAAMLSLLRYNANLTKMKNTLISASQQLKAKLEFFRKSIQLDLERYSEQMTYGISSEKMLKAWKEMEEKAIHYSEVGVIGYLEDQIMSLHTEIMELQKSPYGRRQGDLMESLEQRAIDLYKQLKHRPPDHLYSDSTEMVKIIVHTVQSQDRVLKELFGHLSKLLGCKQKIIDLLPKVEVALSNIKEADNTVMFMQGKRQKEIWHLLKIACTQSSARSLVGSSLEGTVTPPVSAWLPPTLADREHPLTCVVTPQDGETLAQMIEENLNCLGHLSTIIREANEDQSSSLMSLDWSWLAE

B1: Myc-N1-220 (other, not shown: small tags and cut ends)
chain: MAVMEMACPGAPGSAVGQQKELPKPKEKTPPLGKKQSSVYKLEAVEKSPVFCGKWEILNDVITKGTAKEGSEAGPAAISIIAQAECENSQEFSPTFSERIFIAGSKQYSQSESLDQIPNNVAHATEGKMARVCWKGKRRSKARKKRKKKSSKSLAHAGVALAKPLPRTPEQESCTIPVQEDESPLGAPYVRNTPQFTKPLKEPGLGQLCFKQLGEGLRPA
notes: Treated as one construct; also called Myc-N1-200; N1-200
B2: Myc-N570-947 (other, not shown: small tags and cut ends)
chain: GRSCDAKVDVWSSCCMMLHMLNGCHPWTQFFRGPLCLKIASEPPPVREIPPSCAPLTAQAIQEGLRKEPIHRVSAAELGGKVNRALQQVGGLKSPWRGEYKEPRHPPPNQANYHQTLHAQPRELSPRAPGPRPAEETTGRAPKLQPPLPPEPPEPNKSPPLTLSKEESGMWEPLPLSSLEPAPARNPSSPERKATVPEQELQQLEIELFLNSLSQPFSLEEQEQILSCLSIDSLSLSDDSEKNPSKASQSSRDTLSSGVHSWSSQAEARSSSWNMVLARGRPTDTPSYFNGVKVQIQSLNGEHLHIREFHRVKVGDIATGISSQIPAAAFSLVTKDGQPVRYDMEVPDSGIDLQCTLAPDGSFAWSWRVKHGQLENRP
B3: Myc-N1-366 (other, not shown: small tags and cut ends)
chain: MAVMEMACPGAPGSAVGQQKELPKPKEKTPPLGKKQSSVYKLEAVEKSPVFCGKWEILNDVITKGTAKEGSEAGPAAISIIAQAECENSQEFSPTFSERIFIAGSKQYSQSESLDQIPNNVAHATEGKMARVCWKGKRRSKARKKRKKKSSKSLAHAGVALAKPLPRTPEQESCTIPVQEDESPLGAPYVRNTPQFTKPLKEPGLGQLCFKQLGEGLRPALPRSELHKLISPLQCLNHVWKLHHPQDGGPLPLPTHPFPYSRLPHPFPFHPLQPWKPHPLESFLGKLACVDSQKPLPDPHLSKLACVDSPKPLPGPHLEPSCLSRGAHEKFSVEEYLVHALQGSVSSSQAHSLTSLAKTWAARGSR
notes: C-terminal deletion mutant of NIK
B4: Myc-N1-624 (other, not shown: small tags and cut ends)
chain: MAVMEMACPGAPGSAVGQQKELPKPKEKTPPLGKKQSSVYKLEAVEKSPVFCGKWEILNDVITKGTAKEGSEAGPAAISIIAQAECENSQEFSPTFSERIFIAGSKQYSQSESLDQIPNNVAHATEGKMARVCWKGKRRSKARKKRKKKSSKSLAHAGVALAKPLPRTPEQESCTIPVQEDESPLGAPYVRNTPQFTKPLKEPGLGQLCFKQLGEGLRPALPRSELHKLISPLQCLNHVWKLHHPQDGGPLPLPTHPFPYSRLPHPFPFHPLQPWKPHPLESFLGKLACVDSQKPLPDPHLSKLACVDSPKPLPGPHLEPSCLSRGAHEKFSVEEYLVHALQGSVSSSQAHSLTSLAKTWAARGSRSREPSPKTEDNEGVLLTEKLKPVDYEYREEVHWATHQLRLGRGSFGEVHRMEDKQTGFQCAVKKVRLEVFRAEELMACAGLTSPRIVPLYGAVREGPWVNIFMELLEGGSLGQLVKEQGCLPEDRALYYLGQALEGLEYLHSRRILHGDVKADNVLLSSDGSHAALCDFGHAVCLQPDGLGKSLLTGDYIPGTETHMAPEVVLGRSCDAKVDVWSSCCMMLHMLNGCHPWTQFFRGPLCLKIASEPPPVREIPPSCAP
notes: as for B3
B5: Myc-N1-578 (other, not shown: small tags and cut ends)
chain: MAVMEMACPGAPGSAVGQQKELPKPKEKTPPLGKKQSSVYKLEAVEKSPVFCGKWEILNDVITKGTAKEGSEAGPAAISIIAQAECENSQEFSPTFSERIFIAGSKQYSQSESLDQIPNNVAHATEGKMARVCWKGKRRSKARKKRKKKSSKSLAHAGVALAKPLPRTPEQESCTIPVQEDESPLGAPYVRNTPQFTKPLKEPGLGQLCFKQLGEGLRPALPRSELHKLISPLQCLNHVWKLHHPQDGGPLPLPTHPFPYSRLPHPFPFHPLQPWKPHPLESFLGKLACVDSQKPLPDPHLSKLACVDSPKPLPGPHLEPSCLSRGAHEKFSVEEYLVHALQGSVSSSQAHSLTSLAKTWAARGSRSREPSPKTEDNEGVLLTEKLKPVDYEYREEVHWATHQLRLGRGSFGEVHRMEDKQTGFQCAVKKVRLEVFRAEELMACAGLTSPRIVPLYGAVREGPWVNIFMELLEGGSLGQLVKEQGCLPEDRALYYLGQALEGLEYLHSRRILHGDVKADNVLLSSDGSHAALCDFGHAVCLQPDGLGKSLLTGDYIPGTETHMAPEVVLGRSCDAKVD
notes: as for B3

Target: T2, NIK-T7 (Homo sapiens (Human), UniProt Q99558 1-947)
T2 construct: Full-length NIK in pEV3S with C-terminal T7 tag; also called pEV-NIK-T7
Assay: co-immunoprecipitation from 293 lysates, anti-T7 IP, anti-Myc blot

Binding result, no binding:
B1, B2

Target: T1, IKKα-T7
Assay: as above

Binding result, no binding:
B3, B1, B4, B5
